Assay results reported in the RNAGym collection of RNA variant scans (doi:10.1073/pnas.2313332121).

B1: TPR t1 (parent)
chain: GACCAAUCUGCCCUCAGAGCUCGAGAACAUCUUCGGAUGCAGAGGAGGCAGGCUUCGGUGGCGCGAUAGCGCCAACGUCCUCAACCUCCAAUGCAUCCCACCACAUGAUGAUGCCUGAAGAGCCUUGGUUUUUUG

Variants of: B1
Assay: polymerase ribozyme fitness, log enrichment relative to wild type (log ratio); higher = more active; in vitro selection for triplet polymerase activity
How it was run: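 Mutant libraries of each subunit of a heterodimeric triplet polymerase ribozyme were built by PCR and transcribed. Each library went through one round of in vitro selection in triplicate: annealing with biotinylated primer, partner subunit and triplets, frozen incubation at −7 °C, gel excision of extended constructs, streptavidin-bead capture and RT-PCR. Input and output libraries were Illumina-sequenced; only genotypes with ≥10 input reads and ≥1 read per output were kept. Fitness is log2(genotype enrichment/wild-type enrichment), using inverse-variance-weighted replicate averages.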

Variant | polymerase ribozyme fitness (log ratio)
GACCAAUCUGCCCUCAGAGCUCGAGAACAUCUUAGGAAGCAGAGGAGGCAGGCUUCGGUGGCGCGAUAGCUCCAACGUCCUCAACCUCCAAUGCAUCCCAUCACAUGAUGAUGCCUGAAGAGCCUUGGUUUUUUG [C34A U38A G71U C101U] | -5.16
GACCAAUCUGCCCUCAGAGCUCGAGAACAUCUUAGGAUGCAGAGGAGGCAGGCAUCGGUGGCGCGAUAUCGCCAACGUCCUCAACCUCCAAUGCAUCCCACCACAUGAUGAUGCCUGAAGGGCCUUGGUUUUUUG [C34A U54A G69U A121G] | 1.52
GACCAAUCUGCCCUCAGAGCUCGAGAACAUCUUAGGAUGCAGAGGAGGCAGGCGUCGGUGGCGCGAUAGCGCCAACGUCCUCAACCUCCAAUGUAUCCCACCACAUGAUGAUGCCUGAAGAGCCUUGGUUUUUUG [C34A U54G C94U] | -2.75
GACCAAUCUGCCCUCAGAGCUCGAGAACAUCUUAGGAUGCAGAGGAGGCAGGCUCCGGUGGCGCGAUAGCGCCAACGUCCUCAACCUCCAAUGCAUCCCACCACAUGAUGAUGCCUGAAGAGCCUUGGUUUUUUG [C34A U55C] | -3.18
GACCAAUCUGCCCUCAGAGCUCGAGAACAUCUUAGGAUGCAGAGGAGGCAGGCUGCGGUGGCGCGAUAGCGCCAACAUCCUCAACCUCCAAUGCAUCCCACCACAUGAUGAUGCCUGAAGAGCCUUGGUUUUUUG [C34A U55G G77A] | -4.67
GACCAAUCUGCCCUCAGAGCUCGAGAACAUCUUAGGAUGCAGAGGAGGCAGGCUUCGGUGGCGCGAUAGCGCCAACGCCCUCAACCUCCAAUGCAUCCCACCACAUGAUGAUGCCUGAAGAGCCUUGGUUUUUUG [C34A U78C] | -2.79
GACCAAUCUGCCCUCAGAGCUCGAGAACAUCUUAGGAUGCAGAGGAGGCAGGCUUCGGUGGCGCGAUAGCGCCAACGUCCUCAACCUCCAAUGCAUCCCACCACAUGAUGAUGCCUGAAGAGCCUUGGUUUUAUG [C34A U133A] | -2.19
GACCAAUCUGCCCUCAGAGCUCGAGAACAUCUUGGGUUGCAGAGGAGGCAGGCUGCGGUGGCGCGAUAGCGGCAACGUCCUCAACCUCCAACGCAUCCCACCACAUGAUGAUGCCUGAAGAGCAUUGGUUUUUUG [C34G A37U U55G C72G U92C C124A] | -5.91
GACCAAUCUGCCCUCAGAGCUCGAGAACAUCUUGGGAUGCCGAGGAGGCAGGCUUAGGUGGCGCGUUAGCGCCAACGUCCUCAACCUCCAAUGCAUCCCACCACAUGAUGAUGCAUGAAGAGCCUUGGUUUUUUG [C34G A41C C56A A66U C115A] | -7.59
GACCAAUCUGCCCUCAGAGCUCGAGAACAUCUUGGGAUGCAGCGGAGGCAGGCUUCGGUUGCGCGAUAGCGCCAACGUCCUCAACCUCCAAUGCAUCCCACCACAUGAUGAUGCCUGAAGAGCCUUGGUUUUUUG [C34G A43C G60U] | -6.09
GACCAAUCUGCCCUCAGAGCUCGAGAACAUCUUGGGAUGCAGGGGAGGCAGGAUUCGGUGGCGCGAUAGCACCAACGUCCUCAACCUCCAAUGCAUCCCACCACAUGAUGCUGCCUGAAGAGGCUUGGUUUUUUG [C34G A43G C53A G71A A111C C123G] | -7.9
GACCAAUCUGCCCUCAGAGCUCGAGAACAUCUUGGGAUGCAGAGGCGGCAGGCUUCGGUGGCGCGAUAGCGCCAACGUCCUCAACCUCCAAUGCAUCCCACCACAAGAUAAUGCCUGAAGAGCCUUGGUGAUUUG [C34G A46C U106A G110A U130G U131A] | -5.46
GACCAAUCUGCCCUCAGAGCUCGAGAACAUCUUGGGAUGCAGAGGAGGCUGGCUUCGGUGCCGCGAUAGCGCCAACGUCCUCAACCUCCGAUGCAUCCCACCACAUGAUCAUGCCUGAAGAGCCUUGGUUUUUUG [C34G A50U G61C A90G G110C] | -7.04
GACCAAUCUGCCCUCAGAGCUCGAGAACAUCUUGGGAUGCAGAGGAGGCAGGCUUCGGUGGCGCGAUAGCGCCUACGUCCUCAACCUCCCAUGCAUCCCACCACAUGAUGAGGCCUGAAGAGCCUUGGUUUUUUG [C34G A74U A90C U112G] | -6.64
GACCAAUCUGCCCUCAGAGCUCGAGAACAUCUUGGGAUGCAGAGGAGGCAGGCUUCGGUGGCGCGAUAGCGCCAACGUCCUCGACCUCCAAUGCAUCCCACCACAUGAUGAUGCCUGAAGAGCCUUGGUUUUUUG [C34G A83G] | -6.49
GACCAAUCUGCCCUCAGAGCUCGAGAACAUCUUGGGAUGCAGAGGAGGCAGGCUUCGGUGGCGCGAUAGCGCCAACGUCCUCAACCUCCCAUGCAUCCCACCACAUGAUGAGGCCUGAAGAGCCUUGGUUUUUUG [C34G A90C U112G] | -6.02
GACCAAUCUGCCCUCAGAGCUCGAGAACAUCUUGGGAUGCAGAGGAGGCAGGCUUCGGUGGCGCGAUAGCGCCAACGUCCUCAACCUCCAAUGCAUCCCACCACAUGAUGGUGCCUGAAGAGCCUUGGGUUUUUG [C34G A111G U129G] | -6.92
GACCAAUCUGCCCUCAGAGCUCGAGAACAUCUUGGGAUGUAGAGGAGGCAGGCUUCGGUGGCGCGAUAGCGCCAACGUCCUCAACCUCCAAUGCAUCCCACCACAUGAUGAUGCCUGAAGAGCCUUGGUUUUUUG [C34G C40U] | -6.15
GACCAAUCUGCCCUCAGAGCUCGAGAACAUCUUGGGAUGCAGAGGAGGCAGGUUUCGGUGGCGCGAUAGCGCCAACGUCCUCAACCUCCAAUGCAUCCCACCACAUGAUGAUGCCUGAAGAGCCUUGGUUUUUUG [C34G C53U] | -5.89
GACCAAUCUGCCCUCAGAGCUCGAGAACAUCUUGGGAUGCAGAGGAGGCAGGUUUCGGUGGCGCGAUAGCGCUAACGUCCUCAACCUCCAAUGCAUCCCACCACAUGAUGAUCGCUGAAGAGCCUUGGUUUUUUG [C34G C53U C73U G113C C114G] | -8.55
GACCAAUCUGCCCUCAGAGCUCGAGAACAUCUUGGGAUGCAGAGGAGGCAGGUUUCGGUAGCGCGAUAGCGCCAACGUCCUCAACCGCCAAUGCAUCCCACCACAUGAUCAUGCCUGAAGAGCCUUGGUUUUUUG [C34G C53U G60A U87G G110C] | -7.9
